Each sequence was assayed on Escherichia coli TOP10 (assay: shrunken log2 fold change of peptide-encoding DNA abundance (4.5 h post-induction vs induction); higher = less antimicrobial activity (less host growth inhibition)). Conditions: time post-induction: 4.5 h; library: site-saturation at positions 5, 18, 19, 20.
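Also: peptides expressed intracellularly from a pBAD plasmid library in pooled LB shake-flask culture, induced with 0.3% L-arabinose, DNA abundance read by NGS, three biological replicates, DESeq2 with apeglm shrinkage.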

Sequence | shrunken log2 fold change
RRIRTRPPRLPRPRPRPKINPRP | -0.325
RRIRMRPPRLPRPRPRPTKWPRP | 0.445
RRIRPRPPRLPRPRPRPGEKPRP | -0.0882
RRIRDRPPRLPRPRPRPLTNPRP | -0.19
RRIRRRPPRLPRPRPRPLVPPRP | 0.175
RRIRLRPPRLPRPRPRPVVRPRP | 0.148
RRIRRRPPRLPRPRPRPISFPRP | -0.27
RRIRSRPPRLPRPRPRPCMYPRP | -0.0328
RRIRKRPPRLPRPRPRPVDFPRP | 0.103
RRIRKRPPRLPRPRPRPECTPRP | 3.42
RRIRRRPPRLPRPRPRPCLAPRP | 0.242
RRIRRRPPRLPRPRPRPIYLPRP | -0.205
RRIRLRPPRLPRPRPRPYMIPRP | -0.449
RRIRERPPRLPRPRPRPHIYPRP | -0.226
RRIRRRPPRLPRPRPRPMVGPRP | 0.397
RRIRGRPPRLPRPRPRPAVMPRP | 0.946
RRIRTRPPRLPRPRPRPSKFPRP | -0.624
RRIRCRPPRLPRPRPRPCEGPRP | 0.0324
RRIRFRPPRLPRPRPRPQPCPRP | 0.078
RRIRGRPPRLPRPRPRPYTDPRP | -0.417
RRIRHRPPRLPRPRPRPTGQPRP | 0.0378
RRIRPRPPRLPRPRPRPVADPRP | 0.295
RRIRWRPPRLPRPRPRPHSHPRP | -3.83e-05
RRIRNRPPRLPRPRPRPTHNPRP | -0.114
RRIRNRPPRLPRPRPRPWDIPRP | -0.00804

Sequence | shrunken log2 fold change
RRIRGRPPRLPRPRPRPCDSPRP | 0.0374
RRIRMRPPRLPRPRPRPRSPPRP | 0.921
RRIRLRPPRLPRPRPRPINCPRP | -0.0463
RRIRGRPPRLPRPRPRPVNRPRP | -0.0382
RRIRWRPPRLPRPRPRPCLEPRP | 0.012
RRIRTRPPRLPRPRPRPMNSPRP | -0.191
RRIRPRPPRLPRPRPRPRVEPRP | 0.625
RRIRNRPPRLPRPRPRPSLIPRP | -0.138
RRIRFRPPRLPRPRPRPIDNPRP | 2.36
RRIRLRPPRLPRPRPRPPLCPRP | 0.162
RRIRPRPPRLPRPRPRPLHSPRP | -0.207
RRIRFRPPRLPRPRPRPYSNPRP | -0.603
RRIRERPPRLPRPRPRPGAVPRP | 1.45
RRIRTRPPRLPRPRPRPRPAPRP | 0.555
RRIRSRPPRLPRPRPRPEYNPRP | -0.229
RRIRSRPPRLPRPRPRPEICPRP | 0.0531
RRIRWRPPRLPRPRPRPFQCPRP | -0.0406
RRIRDRPPRLPRPRPRPDFIPRP | 0.0951
RRIRDRPPRLPRPRPRPKNLPRP | -0.0874
RRIRSRPPRLPRPRPRPAGGPRP | 0.529
RRIRGRPPRLPRPRPRPISLPRP | -0.228
RRIRLRPPRLPRPRPRPNTEPRP | 0.019
RRIRARPPRLPRPRPRPLVKPRP | 0.0577
RRIRPRPPRLPRPRPRPIGQPRP | 0.121
RRIRCRPPRLPRPRPRPHRHPRP | -0.275

— the supplement of paper PMC9112550, “Optimization of the antimicrobial peptide Bac7 by deep mutational scanning” (BMC Biology, 2022)
